Data published in US20240228599A1 (Sanofi, published 2024).

T1: cynomolgus monkey Factor Bb (cynomolgus monkey)
T1 chain: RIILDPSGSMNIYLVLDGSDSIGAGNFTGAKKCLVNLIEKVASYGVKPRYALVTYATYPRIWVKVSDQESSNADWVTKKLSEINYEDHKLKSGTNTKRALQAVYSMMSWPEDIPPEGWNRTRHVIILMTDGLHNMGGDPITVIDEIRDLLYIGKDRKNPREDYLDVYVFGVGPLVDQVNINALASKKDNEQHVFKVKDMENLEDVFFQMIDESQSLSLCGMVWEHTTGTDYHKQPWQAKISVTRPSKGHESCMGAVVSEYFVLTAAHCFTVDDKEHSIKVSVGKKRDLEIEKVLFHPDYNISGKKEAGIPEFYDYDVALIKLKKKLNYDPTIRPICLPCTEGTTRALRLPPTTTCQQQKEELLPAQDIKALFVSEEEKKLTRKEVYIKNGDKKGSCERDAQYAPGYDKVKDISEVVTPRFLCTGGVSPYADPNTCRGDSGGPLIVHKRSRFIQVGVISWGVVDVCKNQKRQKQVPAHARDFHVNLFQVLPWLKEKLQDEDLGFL

B1: anti-factor Bb monoclonal antibody M10 (antibody, V domains shown)
VH: EVQLVESGGALVKPGGSLKLSCAASGFTFSNYAMSWVRQTPEKRLEWVATISNRGSYTYYPDSVKGRFTISRDNAKNTLYLQMSSLRSEDTALYYCARERPMDYWGQGTSVTVSS
VL: DIVMTQSHKFMSTSVGDRVSITCKASQDVGTAVAWYQQKPGQSPKLLIYWASTRHTGVPDRFTGSGSGTDFTLTITNVQSEDLAVYFCHQHSSNPLTFGAGTKLELK
notes: Mouse monoclonal purified from hybridoma supernatant
B2: anti-factor Bb monoclonal antibody M18 (antibody, V domains shown)
VH: B1 VH
VL: B1 VL
notes: as for B1
B3: anti-factor Bb monoclonal antibody M17 (antibody, V domains shown)
VH: EVQLVESGGVLVKPGGSLKLSCAASGFTFSNFAMSWVRQTPAKRLEWVATISNGGGYTYYPDSVQGRFTISRDNANNTLYLQMSSLRSEDTALYYCARIYYGSSYEDWFAYWGQGTLVTVSA
VL: DIVMTPSHKFMSTSVGDRVSITCKASQDVGSAVAWYQQKPGHSPKLLIFWASTRHTGVPDRFTGSGSGTDFTLTISNVQSEDLADYFCQQYSSYPYTFGGGTRLEIK
notes: as for B1
B4: anti-factor Bb monoclonal antibody M4 (antibody, V domains shown)
VH: EVQLQQSGPELVKPGASVKMSCKASGYSFTDYLMNWVKQSHGKSLEWIGRINPYNGDAFYNQRFKGKATLTVDKSSSTAHMELRSLTSEDSALYYCARLENDYGFTYWGQGTLVTVSA
VL: DIVMTQAAFSNPVTLGTSASISCSSSKSLLHSNGITYLYWYLQRPGQSPQLLIYRMSNLASGVPDRFSGSGSGTDFTLRISRVEAEDVGVYYCAQMLERPWTFGGGTKLEIK
notes: Mouse monoclonal purified from hybridoma supernatant; also called Factor B/Bb antibody M4
B5: anti-factor Bb monoclonal antibody M12 (antibody, V domains shown)
VH: B4 VH
VL: B4 VL
notes: as for B1

What was measured:
[1] = biological target: T2, purified human Factor Bb (human, UniProt P00751 260-764); assay: cell-based or functional assay
[2] = biological target: cynomolgus monkey Factor Bb (cynomolgus monkey); assay: cell-based or functional assay
[3] = biological target: T2, purified human Factor Bb; assay: antigen-capture ELISA, ratio of absorbance with biotinylated Factor Bb to that with Factor B
Experimental: (§1) Preferential binding of factor Bb antibodies to activated factor B versus full length Factor B zymogen was determined in an optimized antigen-capture ELISA format to evaluate binding to target soluble proteins. 1 μg/mL of antibody was bound to goat anti-mouse IgG coated plates (Pierce; Thermo Scientific), followed by incubation with 1 μg/mL biotinylated factor Bb or factor B (Complement Technologies). Bound factor Bb/B proteins were detected with streptavidin-HRP and reacted with TMB 1-Step Ultra TMB-ELISA Substrate Solution (Thermo Scientific). Reactions were stopped with an equal volume of 1N sulfuric acid; and absorbance at OD₄₅₀ₙₘ was measured. The ratio of absorbance of binding by Factor Bb versus Factor B (fBb/B ratio) was calculated and the results are shown in FIG. 3.
Target sequence in this assay (P00751 260-764 limits assumed): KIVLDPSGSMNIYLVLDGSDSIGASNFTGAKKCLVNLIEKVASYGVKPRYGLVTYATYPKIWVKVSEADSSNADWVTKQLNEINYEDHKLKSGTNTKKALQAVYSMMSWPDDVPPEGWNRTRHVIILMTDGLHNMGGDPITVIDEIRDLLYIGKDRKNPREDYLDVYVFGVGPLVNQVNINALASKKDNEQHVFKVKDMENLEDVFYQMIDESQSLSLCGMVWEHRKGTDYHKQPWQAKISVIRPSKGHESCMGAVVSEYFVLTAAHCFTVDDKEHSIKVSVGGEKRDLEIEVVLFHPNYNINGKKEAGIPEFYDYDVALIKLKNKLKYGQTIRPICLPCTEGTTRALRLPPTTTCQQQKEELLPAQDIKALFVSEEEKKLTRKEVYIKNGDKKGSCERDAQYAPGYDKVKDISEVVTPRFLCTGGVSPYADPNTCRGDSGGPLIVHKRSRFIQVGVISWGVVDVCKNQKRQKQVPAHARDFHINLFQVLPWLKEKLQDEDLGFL

[4] = biological target: T2, purified human Factor Bb; assay: ELISA on coated human Factor Bb; EC50 calculated with PRISM from the curves of FIG. 1
Experimental: (§2) The relative EC₅₀ values for factor Bb mAbs were determined by ELISA. Unlabeled purified human Factor Bb (Complement Technologies; 1 μg/mL) was coated onto a high binding ELISA plate, and incubated with increasing amounts of purified mAbs (3-fold serial dilutions starting at 10 μg/mL). Horse radish peroxidase (HRP)-conjugated goat anti-mouse secondary antibody (Southern Biotech) was used for detection, and reacted with 3,3′,5,5′-Tetramethylbenzidine (TMB) 1-Step Ultra TMB-ELISA Substrate Solution (Thermo Scientific). Reactions were stopped with an equal volume of 1N sulfuric acid; and absorbance at OD₄₅₀ₙₘ was measured.
Target sequence in this assay (P00751 260-764 limits assumed): as above

[5] = biological target: T2, purified human Factor Bb; assay: ELISA; human Factor Bb coated at 1 µg/mL, mAb in 3-fold dilutions from 10 µg/mL, HRP goat anti-mouse, OD450
Experimental: as §2
Target sequence in this assay (P00751 260-764 limits assumed): as above

[6] = biological target: T3, cynomolgus monkey Factor Bb (cynomolgus monkey); assay: ELISA; cynomolgus Factor Bb coated at 5 µg/mL, mAb in 3-fold dilutions from 10 µg/mL; EC50 by Prism according to the text, headed 'Binding Affinity (M)' on the sheet
T3 construct: In the serum assays the target is the factor B/Bb of cynomolgus serum; also called cyno Factor Bb
Experimental: as §2
(§3) Factor Bb mAbs were assayed for their ability to bind to cynomolgus monkey Factor B or Factor Bb by ELISA. 5 μg/mL of each purified protein (Innovative Research; purified in-house) was coated onto ELISA plates, incubated with purified factor Bb mAbs (3-fold serial dilutions starting at 10 μg/mL), and bound antibody was detected as in Example 2.

[7] = biological target: T2, purified human Factor Bb; assay: antigen-capture ELISA; mAb at 1 µg/mL on goat anti-mouse IgG plates, 1 µg/mL biotinylated Factor Bb or Factor B, streptavidin-HRP; OD450 with Factor Bb divided by OD450 with Factor B; the text rounds this to 5.5
Experimental: as §1

[8] = biological target: T4, full-length Factor B (UniProt P00751 26-764); assay: antigen-capture ELISA, antibody on goat anti-mouse IgG plate
T4 construct: Biotinylated in the antigen-capture ELISA, unlabeled in SEC; also called Factor B zymogen; FB
Experimental: as §1

[9] = biological target: T1, cynomolgus monkey Factor Bb; assay: ELISA; cynomolgus Factor Bb coated at 5 µg/mL, mAb in 3-fold dilutions from 10 µg/mL; EC50 by Prism according to the text, headed 'Binding Affinity (M)' on the sheet
Experimental: as §2, §3

[10] = biological target: T2, purified human Factor Bb; assay: antigen-capture ELISA; mAb at 1 µg/mL on goat anti-mouse IgG plates, 1 µg/mL biotinylated Factor Bb or Factor B, streptavidin-HRP; OD450 with Factor Bb divided by OD450 with Factor B
Experimental: as §1

Binder | IC50, Wieslab AP activity, 5.5% normal human serum [1] | IC50, Wieslab AP activity, 5.5% cynomolgus monkey serum [2] | IC50, hemolysis of rabbit RBCs by 5% cynomolgus monkey serum [2] | fBb/B ratio [3] | EC50 [4] | EC50 (read off the curve) [5] | EC50 [6] | Ratio OD fBb/fB (ELISA) [7] | binding result [8] | EC50 [9] | Ratio OD fBb/fB (ELISA) [10]
B1 | 97.9 nM | 367 nM | 220 nM | 5.5 | 0.335 nM | ~300 pM | 0.488 nM | 5.49 |  |  | 
B2 |  |  | 232 nM | 8.4 | 0.336 nM | ~300 pM | 0.449 nM |  |  |  | 
B3 |  |  |  |  | 3.14 nM |  |  |  | no binding (tested: 1 µg/mL biotinylated factor B) | ~2.64 nM | 70.7
B4 |  |  | 25 nM | ≥ 1 | 0.874 nM | ~800 pM |  |  |  |  | 0.59
B5 |  |  | 28.2 nM | ≥ 1 | 0.761 nM | ~700 pM | 2.55 nM |  |  |  | 0.82
